The data set has as its system Escherichia coli TOP10. Kind of data set: shrunken log2 fold change of peptide-encoding DNA abundance (4.5 h post-induction vs induction); higher = less antimicrobial activity (less host growth inhibition). The following applies: time post-induction: 4.5 h; library: site-saturation at positions 5, 18, 19, 20.
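Further: peptides expressed intracellularly from a pBAD plasmid library in pooled LB shake-flask culture, induced with 0.3% L-arabinose, DNA abundance read by NGS, three biological replicates, DESeq2 with apeglm shrinkage.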

For the sequence RRIRPRPPRLPRPRPRPSQPPRP, the “shrunken log2 fold change” value was 0.122.

As for RRIRMRPPRLPRPRPRPPMIPRP, the “shrunken log2 fold change” value is -0.0431.

On to RRIRYRPPRLPRPRPRPDGRPRP, for which the “shrunken log2 fold change” value was -0.154.

As for RRIRKRPPRLPRPRPRPTKEPRP, the “shrunken log2 fold change” value stood at 1.6.

As for RRIRLRPPRLPRPRPRPHVMPRP, the “shrunken log2 fold change” value was -0.266.

For the sequence RRIRLRPPRLPRPRPRPADNPRP, the “shrunken log2 fold change” value is -0.26.

Regarding RRIRERPPRLPRPRPRPAWVPRP, the “shrunken log2 fold change” value is 0.174.

As to RRIRARPPRLPRPRPRPASDPRP, the “shrunken log2 fold change” value was determined as 0.661.

In the case of RRIRNRPPRLPRPRPRPLRDPRP, the “shrunken log2 fold change” value was determined as 0.521.

For the sequence RRIRQRPPRLPRPRPRPFCAPRP, the “shrunken log2 fold change” value was determined as 0.184.

As for RRIRSRPPRLPRPRPRPDTNPRP, the “shrunken log2 fold change” value is -0.111.

For the sequence RRIRVRPPRLPRPRPRPPPHPRP, the “shrunken log2 fold change” value came to 0.676.

For the sequence RRIRLRPPRLPRPRPRPSELPRP, the “shrunken log2 fold change” value was -0.195.

As for RRIRPRPPRLPRPRPRPTEQPRP, the “shrunken log2 fold change” value was 0.307.

Regarding RRIRDRPPRLPRPRPRPGFMPRP, the “shrunken log2 fold change” value stood at 0.219.

Consider RRIRPRPPRLPRPRPRPKYAPRP, for which the “shrunken log2 fold change” value was -0.102.

With RRIRVRPPRLPRPRPRPVWYPRP, the “shrunken log2 fold change” value is -0.154.

Turning to RRIRCRPPRLPRPRPRPWINPRP, the “shrunken log2 fold change” value is 0.102.

Consider RRIRTRPPRLPRPRPRPCQAPRP, for which the “shrunken log2 fold change” value was -0.0455.

RRIRHRPPRLPRPRPRPQEDPRP: the “shrunken log2 fold change” value is -0.106.

In the case of RRIRIRPPRLPRPRPRPCPIPRP, the “shrunken log2 fold change” value stood at 0.128.

On to RRIRMRPPRLPRPRPRPMQIPRP, for which the “shrunken log2 fold change” value worked out at 0.0553.

RRIRNRPPRLPRPRPRPDGFPRP: the “shrunken log2 fold change” value was -0.104.

As to RRIRTRPPRLPRPRPRPTVGPRP, the “shrunken log2 fold change” value was 0.155.

Regarding RRIRARPPRLPRPRPRPMKMPRP, the “shrunken log2 fold change” value worked out at 0.0994.

Take RRIRDRPPRLPRPRPRPNEMPRP: the “shrunken log2 fold change” value turned out to be 0.00902.

In the case of RRIRIRPPRLPRPRPRPKTVPRP, the “shrunken log2 fold change” value was found to be 0.0407.

On to RRIRVRPPRLPRPRPRPYFLPRP, for which the “shrunken log2 fold change” value is -0.149.

With RRIRLRPPRLPRPRPRPGANPRP, the “shrunken log2 fold change” value is -0.146.

Take RRIRIRPPRLPRPRPRPIFPPRP: the “shrunken log2 fold change” value was -0.104.

Take RRIRYRPPRLPRPRPRPMQLPRP: the “shrunken log2 fold change” value was 0.219.

Turning to RRIRWRPPRLPRPRPRPDMYPRP, the “shrunken log2 fold change” value was -0.389.

As to RRIRPRPPRLPRPRPRPFPVPRP, the “shrunken log2 fold change” value amounted to 0.00381.

RRIRPRPPRLPRPRPRPMREPRP: the “shrunken log2 fold change” value was 1.07.

Take RRIRKRPPRLPRPRPRPDKTPRP: the “shrunken log2 fold change” value is -0.0726.

On to RRIRMRPPRLPRPRPRPSMTPRP, for which the “shrunken log2 fold change” value came to 2.18.

As to RRIRTRPPRLPRPRPRPCWGPRP, the “shrunken log2 fold change” value was -0.234.

For the sequence RRIRHRPPRLPRPRPRPKAWPRP, the “shrunken log2 fold change” value was -0.00151.

On to RRIRPRPPRLPRPRPRPVAQPRP, for which the “shrunken log2 fold change” value is 0.123.

Take RRIRPRPPRLPRPRPRPYWKPRP: the “shrunken log2 fold change” value was -0.189.

RRIRVRPPRLPRPRPRPYCEPRP: the “shrunken log2 fold change” value is -0.0433.

For the sequence RRIRIRPPRLPRPRPRPPCFPRP, the “shrunken log2 fold change” value was -0.11.

As for RRIRKRPPRLPRPRPRPHDEPRP, the “shrunken log2 fold change” value is 0.261.

For the sequence RRIRSRPPRLPRPRPRPFVWPRP, the “shrunken log2 fold change” value is -0.0361.

Take RRIRARPPRLPRPRPRPHSCPRP: the “shrunken log2 fold change” value turned out to be 0.0724.

On to RRIRARPPRLPRPRPRPYDDPRP, for which the “shrunken log2 fold change” value was determined as 0.192.

Turning to RRIRGRPPRLPRPRPRPTNDPRP, the “shrunken log2 fold change” value amounted to 0.564.

Turning to RRIRARPPRLPRPRPRPAITPRP, the “shrunken log2 fold change” value came out at 0.322.

For the sequence RRIRQRPPRLPRPRPRPSHFPRP, the “shrunken log2 fold change” value was 0.0685.

RRIRYRPPRLPRPRPRPDVNPRP: the “shrunken log2 fold change” value is -0.0115.

Regarding RRIRRRPPRLPRPRPRPTWKPRP, the “shrunken log2 fold change” value was found to be 0.112.

As for RRIRCRPPRLPRPRPRPDPPPRP, the “shrunken log2 fold change” value worked out at 0.52.

Take RRIRKRPPRLPRPRPRPLMFPRP: the “shrunken log2 fold change” value is 0.0317.

Consider RRIRWRPPRLPRPRPRPPYLPRP, for which the “shrunken log2 fold change” value is -0.184.

For the sequence RRIRQRPPRLPRPRPRPDRNPRP, the “shrunken log2 fold change” value is -0.176.

As to RRIRGRPPRLPRPRPRPTKMPRP, the “shrunken log2 fold change” value is 0.521.

As for RRIRYRPPRLPRPRPRPYIWPRP, the “shrunken log2 fold change” value is -0.29.

For the sequence RRIRDRPPRLPRPRPRPQDCPRP, the “shrunken log2 fold change” value was -0.00195.

With RRIRCRPPRLPRPRPRPFVFPRP, the “shrunken log2 fold change” value is -0.26.

For RRIRWRPPRLPRPRPRPQWPPRP, the “shrunken log2 fold change” value was 0.158.

Regarding RRIRGRPPRLPRPRPRPQDQPRP, the “shrunken log2 fold change” value came out at 0.531.

Consider RRIRWRPPRLPRPRPRPSNRPRP, for which the “shrunken log2 fold change” value is -0.174.

Turning to RRIRDRPPRLPRPRPRPSKGPRP, the “shrunken log2 fold change” value was -0.0731.

Regarding RRIRVRPPRLPRPRPRPSSGPRP, the “shrunken log2 fold change” value is -0.39.

As for RRIRGRPPRLPRPRPRPVLDPRP, the “shrunken log2 fold change” value turned out to be 0.419.

For RRIRRRPPRLPRPRPRPFFQPRP, the “shrunken log2 fold change” value is -0.111.

Consider RRIRTRPPRLPRPRPRPRDNPRP, for which the “shrunken log2 fold change” value is -0.239.

RRIRYRPPRLPRPRPRPDCHPRP: the “shrunken log2 fold change” value is -0.0362.

For the sequence RRIRHRPPRLPRPRPRPVKAPRP, the “shrunken log2 fold change” value was -0.0779.

With RRIRDRPPRLPRPRPRPYRAPRP, the “shrunken log2 fold change” value is -0.118.

RRIRERPPRLPRPRPRPHNCPRP: the “shrunken log2 fold change” value was -0.417.

Consider RRIRFRPPRLPRPRPRPYHGPRP, for which the “shrunken log2 fold change” value is -0.114.

With RRIRPRPPRLPRPRPRPERFPRP, the “shrunken log2 fold change” value was -0.0264.

In the case of RRIRSRPPRLPRPRPRPKHGPRP, the “shrunken log2 fold change” value was -0.22.

In the case of RRIRPRPPRLPRPRPRPPIKPRP, the “shrunken log2 fold change” value turned out to be 0.355.

As to RRIRKRPPRLPRPRPRPIYTPRP, the “shrunken log2 fold change” value was -0.0648.

Regarding RRIRYRPPRLPRPRPRPQGAPRP, the “shrunken log2 fold change” value was -0.238.

For RRIRYRPPRLPRPRPRPNSMPRP, the “shrunken log2 fold change” value is -1.77.

Take RRIRQRPPRLPRPRPRPGWDPRP: the “shrunken log2 fold change” value worked out at 0.135.

On to RRIRERPPRLPRPRPRPADMPRP, for which the “shrunken log2 fold change” value was -0.0494.

For the sequence RRIRHRPPRLPRPRPRPQHVPRP, the “shrunken log2 fold change” value is -0.048.

On to RRIRTRPPRLPRPRPRPSQYPRP, for which the “shrunken log2 fold change” value is -0.142.

Take RRIRLRPPRLPRPRPRPHDDPRP: the “shrunken log2 fold change” value was -0.115.

Regarding RRIRARPPRLPRPRPRPVLLPRP, the “shrunken log2 fold change” value is 0.122.

In the case of RRIRDRPPRLPRPRPRPCYFPRP, the “shrunken log2 fold change” value is -0.31.

For RRIRIRPPRLPRPRPRPTPAPRP, the “shrunken log2 fold change” value is 0.198.

RRIRGRPPRLPRPRPRPIHCPRP: the “shrunken log2 fold change” value was -0.0922.

For RRIRNRPPRLPRPRPRPDVRPRP, the “shrunken log2 fold change” value was -0.104.

On to RRIRKRPPRLPRPRPRPVDLPRP, for which the “shrunken log2 fold change” value was -0.0854.

With RRIRGRPPRLPRPRPRPWTRPRP, the “shrunken log2 fold change” value was -0.0814.

Take RRIRSRPPRLPRPRPRPTQQPRP: the “shrunken log2 fold change” value stood at 0.138.

As to RRIRGRPPRLPRPRPRPLSHPRP, the “shrunken log2 fold change” value is 0.557.

Take RRIRTRPPRLPRPRPRPVLWPRP: the “shrunken log2 fold change” value is 0.117.

As to RRIRNRPPRLPRPRPRPDRVPRP, the “shrunken log2 fold change” value is -0.275.

As to RRIRCRPPRLPRPRPRPMKSPRP, the “shrunken log2 fold change” value is -0.1.

For RRIRSRPPRLPRPRPRPKDLPRP, the “shrunken log2 fold change” value was determined as 0.184.

RRIRLRPPRLPRPRPRPDTHPRP: the “shrunken log2 fold change” value is -0.543.

Regarding RRIRTRPPRLPRPRPRPAAKPRP, the “shrunken log2 fold change” value stood at 0.217.

Regarding RRIRRRPPRLPRPRPRPIVSPRP, the “shrunken log2 fold change” value was -0.221.

With RRIRYRPPRLPRPRPRPQTPPRP, the “shrunken log2 fold change” value is -0.203.

Take RRIRGRPPRLPRPRPRPNWIPRP: the “shrunken log2 fold change” value is -0.034.

For the sequence RRIRFRPPRLPRPRPRPMGRPRP, the “shrunken log2 fold change” value is 0.103.

For the sequence RRIRTRPPRLPRPRPRPMYCPRP, the “shrunken log2 fold change” value is -0.873.

With RRIRMRPPRLPRPRPRPLCQPRP, the “shrunken log2 fold change” value worked out at 0.0549.

Regarding RRIRTRPPRLPRPRPRPPYCPRP, the “shrunken log2 fold change” value is -0.112.

RRIRSRPPRLPRPRPRPNINPRP: the “shrunken log2 fold change” value is -0.612.

RRIRERPPRLPRPRPRPISMPRP: the “shrunken log2 fold change” value was found to be 2.71.

Consider RRIRGRPPRLPRPRPRPPTTPRP, for which the “shrunken log2 fold change” value was found to be 0.91.

For RRIRCRPPRLPRPRPRPSTTPRP, the “shrunken log2 fold change” value is -0.257.

With RRIRGRPPRLPRPRPRPHSHPRP, the “shrunken log2 fold change” value stood at 0.303.

For RRIRWRPPRLPRPRPRPAAGPRP, the “shrunken log2 fold change” value is 0.545.

On to RRIRIRPPRLPRPRPRPVRWPRP, for which the “shrunken log2 fold change” value came to 0.474.

In the case of RRIRVRPPRLPRPRPRPRIMPRP, the “shrunken log2 fold change” value is -0.601.

In the case of RRIRKRPPRLPRPRPRPSNVPRP, the “shrunken log2 fold change” value was -0.343.

As for RRIRTRPPRLPRPRPRPIHRPRP, the “shrunken log2 fold change” value was -0.00127.

For the sequence RRIRWRPPRLPRPRPRPVYRPRP, the “shrunken log2 fold change” value was -0.0858.

As for RRIRQRPPRLPRPRPRPKMEPRP, the “shrunken log2 fold change” value was -0.0177.

On to RRIRMRPPRLPRPRPRPYNDPRP, for which the “shrunken log2 fold change” value turned out to be 0.0185.

As to RRIRCRPPRLPRPRPRPVMPPRP, the “shrunken log2 fold change” value was -0.139.

With RRIRTRPPRLPRPRPRPNSNPRP, the “shrunken log2 fold change” value was -0.716.

On to RRIRKRPPRLPRPRPRPFILPRP, for which the “shrunken log2 fold change” value was -0.0304.

Turning to RRIRARPPRLPRPRPRPLIRPRP, the “shrunken log2 fold change” value is -0.0546.

RRIRCRPPRLPRPRPRPNKAPRP: the “shrunken log2 fold change” value was -0.116.

As for RRIRFRPPRLPRPRPRPTKCPRP, the “shrunken log2 fold change” value was 0.0225.

Take RRIRCRPPRLPRPRPRPCYWPRP: the “shrunken log2 fold change” value was -0.595.

The record behind these values is the supplement of paper PMC9112550, “Optimization of the antimicrobial peptide Bac7 by deep mutational scanning” (BMC Biology, 2022).
